The values that follow are results of earlier work, collected in patent US20060182683A1, “Methods for reduced renal uptake of protein conjugates” (Center for Molecular Medicine and Immunology, priority 1995, published 2006).

The test system of data set [1] is dogs. As to conditions: 0.005-0.15 mg/kg; cited from earlier work.
Data set [2] concerns rats. The following applies: dose range 0.01-0.02 mg/kg; cited from earlier work.
The subject of data set [3] is protein synthesis in a rabbit reticulocyte lysate. The following applies: read-out: IC50, inhibition of protein synthesis; cited from earlier work.
The target in data set [4] is T1, mammalian placental ribonuclease inhibitor (Homo sapiens, UniProt P13489).
T1 sequence (P13489 1-461): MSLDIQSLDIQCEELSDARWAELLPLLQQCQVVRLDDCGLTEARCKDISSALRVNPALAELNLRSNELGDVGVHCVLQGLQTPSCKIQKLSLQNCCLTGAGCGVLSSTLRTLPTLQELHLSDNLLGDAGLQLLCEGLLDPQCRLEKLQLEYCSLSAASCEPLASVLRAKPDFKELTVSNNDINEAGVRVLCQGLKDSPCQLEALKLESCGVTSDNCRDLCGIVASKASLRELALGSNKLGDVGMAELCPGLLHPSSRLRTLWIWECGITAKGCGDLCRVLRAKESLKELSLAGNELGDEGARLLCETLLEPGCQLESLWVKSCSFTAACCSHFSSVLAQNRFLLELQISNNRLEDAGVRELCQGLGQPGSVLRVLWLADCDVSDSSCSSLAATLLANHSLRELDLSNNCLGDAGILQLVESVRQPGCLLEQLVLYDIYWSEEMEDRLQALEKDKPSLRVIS
As to conditions: cited from earlier work.

Data set [5] relates to Xenopus oocytes. The following applies: microinjected into Xenopus oocytes; read-out: IC50, inhibition of protein synthesis; cited from earlier work.
Data set [6] has as its system patients suffering from a variety of relapsing and resistant tumors. The following applies: intravenous; mainly due to renal toxicity; cited from earlier work.
Data set [7] relates to M109 Madison lung carcinoma. As to conditions: cited from earlier work.

B1: ranpirnase (protein, UniProt P22069 1-104, looked up)
Protein P-30: QDWLTFQKKHITNTRDVDCDNIMSTNLFHCKDKNTFIYSRPEPVKAICKGIIASKNVLTTSEFYLSDCNVTSRPCKYKLKKSTNKFCVTCENQAPVHFVGVGSC
notes: non-mammalian ribonuclease (RNAse), molecular weight 12,000, purified from Rana pipiens oocytes and early embryos
With B1, the toxicity entry in data set [1] was “predictable, dose-dependent and reversible toxicity”; in data set [2], “predictable, dose-dependent and reversible toxicity”. Besides, the half-inhibitory concentration (IC50) in data set [3] is 0.01 nM; in data set [5] it was 0.1 nM. Also, in data set [4], the “inhibition by mammalian placental ribonuclease inhibitor” value was “not inhibited”. For the same molecule, the maximum tolerated dose in data set [6] is recorded as 960 μg/m^2. The survival entry in data set [7] (daily and weekly schedules, intraperitoneal) is given as “significantly prolonged survival”. The “animals surviving long-term, apparently cured” value in data set [7] (weekly schedule) is “six of eighteen”.

As usually defined, the IC50 is the point on the concentration scale where inhibition reaches its midpoint.
